Here are results for two molecules from article PMC12278352, “Characterization of DnaB–DnaG Interaction in M. tuberculosis Using Small‐Angle X‐ray Scattering‐Based Dissociation Assay” (Chembiochem, 2025).

Data set [1] concerns the target DnaG-binding domain of M. tuberculosis DnaB helicase (DnaBn, amino acids 23-166) (M. tuberculosis) (UniProt P9WMR3). Put plainly: cross-linking; 4 μM DnaGΔZBD with DnaBn (0-15.9 μM), 0.045% glutaraldehyde, 40 mM HEPES pH 7.5, 150 mM NaCl, 10 mM MgCl2, 0.1 mM EDTA, 1 mM DTT, 25 min at 25 °C; SDS-PAGE, Coomassie.
The data set “SAXS” deals with the molecule itself. Description: SAXS.
Data set [2] deals with the molecule itself. Description: cross-linking; 4 μM DnaGΔZBD with 0.011-0.25% glutaraldehyde, 40 mM HEPES pH 7.5, 150 mM NaCl, 1 mM DTT, 0.1 mM EDTA, 0.5% DMSO, 30 min at 25 °C; SDS-PAGE, Coomassie.
Data set [3] addresses DnaG-binding domain of M. tuberculosis DnaB helicase (DnaBn, amino acids 23-166) (M. tuberculosis) (UniProt P9WMR3). Put plainly: SPR; DnaBn (2.4 μg) immobilised on a GLC chip by amine coupling; soluble DnaGΔZBD 0-600 nM, 30 μL/min; 25 °C; 40 mM HEPES pH 7.5, 200 mM NaCl, 0.1 mM EDTA, 1 mM DTT; steady-state fit; normalised to a BSA channel; three repeats. (In general: In SPR one partner is held on a chip, and binding of the other changes the refractive index at the surface.)

Take “DnaG-binding domain of M. tuberculosis DnaB helicase (DnaBn, amino acids 23-166) (from UniProt P9WMR3 23-166) (domain or fragment)”: the stoichiometry N in data set [1] is 2.

B1: M. tuberculosis DnaG without the zinc-binding domain (DnaGΔZBD, amino acids 115-639) (domain or fragment)
chain: SRLLAANAAAAAFYAQALQSDEAAPARQYLTERSFDAAAARKFGCGFAPSGWDSLTKHLQRKGFEFEELEAAGLSRQGRHGPMDRFHRRLLWPIRTSAGEVVGFGARRLFDDDAMEAKYVNTPETLLYKKSSVMFGIDLAKRDIAKGHQAVVVEGYTDVMAMHLAGVTTAVASCGTAFGGEHLAMLRRLMMDDSFFRGELIYVFDGDEAGRAAALKAFDGEQKLAGQSFVAVAPDGMDPCDLRLKCGDAALRDLVARRTPLFEFAIRAAIAEMDLDSAEGRVAALRRCVPMVGQIKDPTLRDEYARQLAGWVGWADVAQVIGRVRGEAKRTKHPRLGRLGSTTIARAAQRPTAGPPTELAVRPDPRDPTLWPQREALKSALQYPALAGPVFDALTVEGFTHPEYAAVRAAIDTAGGTSAGLSGAQWLDMVRQQTTSTVTSALISELGVEAIQVDDDKLPRYIAGVLARLQEVWLGRQIAEVKSKLQRMSPIEQGDEYHALFGDLVAMEAYRRSLLEQASGDDLTA
B1: the “stoichiometry N” value in “SAXS” was 2. In data set [2], the “monomer:dimer ratio at 0.25% glutaraldehyde” value was ~1.5 monomer per dimer. Also, the Kd in data set [3] was 210 nM.

As a reminder, the stoichiometry N is the number of molecules, sites or subunits per partner or assembly. What is called Kd is the constant that tells how readily two partners part at equilibrium. Read a high Kd as weaker binding.
